From publication doi:10.1101/798769

Target: NANP 5.5-mer peptide, NP(NANP)5 (Plasmodium falciparum)
Test: SPR

- fold lower affinity (reference not clear: its own NPDP affinity or mAb 4493): 100 fold
Substance: mAb CIS43 (recombinant human IgG1, kappa) (antibody)
